Results taken from publication PMC11390479, “Visualizing chaperonin function in situ by cryo-electron tomography” (Nature, 2024).

What was measured:
GroEL [1] = target: T1, GroEL (E. coli, UniProt P0A6F5 1-548); test: cryo-electron tomography with subtomogram averaging; in vitro reconstituted, isolated GroEL–GroES–MetK complexes with ADP–BeFx, imaged with the parameters of the in situ tomography; settings: both partners purified
T1 construct: GroEL, E. coli chaperonin, 57 kDa subunit; two heptameric rings; One molecule for endogenous, pBAD33-expressed and purified GroEL (same untagged protein, same host); also called GroEL 14-mer; GroEL14; source: E. coli BL21(DE3) Gold: endogenous or overexpressed from pBAD33 (araBAD promoter), in cells or in lysate; copies: 14

GroEL [2] = target: T1, GroEL; test: SEC; Superdex 200 3.2/300 GL; complex formed from 4 uM MetK heat denatured (60 °C, 15 min) with 1 uM GroEL 14-mer in buffer A (20 mM MOPS-NaOH pH 7.4, 200 mM KCl, 10 mM MgCl2, 5 mM DTT) with 30 mM NaF and 5 mM BeSO4, then 2 uM GroES 7-mer and 1 mM ATP; fractions by SDS-PAGE and mass spectrometry (iBAQ); settings: both partners purified
GroEL [3] = target: T1, GroEL; test: co-IP; GroEL antibody on protein A Sepharose; lysate of MetK-overexpressing cells with apyrase (25 U/ml) to arrest the GroEL cycle; HMK buffer, 1 h; immunoblot for GroEL and MetK and LC-MS/MS (iBAQ); settings: partners not purified
[4] = target: the molecule itself; test: cryo-EM structure; single-particle analysis of in vitro reconstituted GroEL–GroES–MetK complexes with ADP–BeFx (non-cycling); control of GroEL and GroES treated identically without MetK

T1 sequence (P0A6F5 whole entry): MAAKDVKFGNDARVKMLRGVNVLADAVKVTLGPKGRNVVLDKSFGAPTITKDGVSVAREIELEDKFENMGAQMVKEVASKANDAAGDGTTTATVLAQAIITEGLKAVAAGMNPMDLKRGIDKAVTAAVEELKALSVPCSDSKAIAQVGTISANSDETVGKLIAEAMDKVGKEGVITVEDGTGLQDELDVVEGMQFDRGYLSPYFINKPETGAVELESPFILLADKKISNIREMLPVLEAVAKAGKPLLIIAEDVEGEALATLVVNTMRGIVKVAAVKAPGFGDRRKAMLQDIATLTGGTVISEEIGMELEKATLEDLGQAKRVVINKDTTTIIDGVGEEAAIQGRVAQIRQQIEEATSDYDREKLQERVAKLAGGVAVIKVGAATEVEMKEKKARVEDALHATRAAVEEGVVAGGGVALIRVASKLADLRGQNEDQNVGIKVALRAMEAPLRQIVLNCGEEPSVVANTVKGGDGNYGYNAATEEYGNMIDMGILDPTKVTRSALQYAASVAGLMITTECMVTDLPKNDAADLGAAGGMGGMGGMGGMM

B1: S-adenosylmethionine synthase (MetK) (enzyme, E. coli)
chain: MAKHLFTSESVSEGHPDKIADQISDAVLDAILEQDPKARVACETYVKTGMVLVGGEITTSAWVDIEEITRNTVREIGYVHSDMGFDANSCAVLSAIGKQSPDINQGVDRADPLEQGAGDQGLMFGYATNETDVLMPAPITYAHRLVQRQAEVRKNGTLPWLRPDAKSQVTFQYDDGKIVGIDAVVLSTQHSEEIDQKSLQEAVMEEIIKPILPAEWLTSATKFFINPTGRFVIGGPMGDCGLTGRKIIVDTYGGMARHGGGAFSGKDPSKVDRSAAYAARYVAKNIVAAGLADRCEIQVSYAIGVAEPTSIMVETFGTEKVPSEQLTLLVREFFDLRPYGLIQMLDLLHPIYKETAAYGHFGREHFPWEKTDKAQLLRDAAGLK
notes: S-adenosylmethionine synthase MetK, obligate GroEL substrate of E. coli; 379 C-alpha atoms compared with PDB 7LOO; core loop residues 97-111; In vitro the protein was heat denatured (60 °C, 15 min) in the presence of GroEL before encapsulation; it stands in the chaperonin as a single subunit; also called fMetK (folded MetK); source: E. coli BL21(DE3): overexpressed from pET22b (T7 promoter, …)
GroEL [1]
  percent of chambers with strong density of folded MetK (class I): ~40%
GroEL [2]
  stoichiometry N: ~1.2 MetK per GroEL 14-mer
GroEL [3]
  stoichiometry N: ~1.3 MetK molecules per GroEL complex

B2: GroES (complex, E. coli, UniProt P0A6F9 1-97, looked up)
chain: MNIRPLHDRVIVKRKEVETKSAGGIVLTGSAAAKSTRGEVLAVGNGRILENGEVKPLDVKVGDIVIFNDGYGVKSEKIDNEEVLIMSESDILAIVEA
notes: GroES, E. coli co-chaperonin, heptamer of 10 kDa subunits; also called GroES 7-mer; lid-shaped cofactor GroES; source: E. coli BL21(DE3) Gold: endogenous or overexpressed from pBAD33 (with groEL, araBAD promoter), in cells
[4]
  binding result: binds
